Measurements published in patent US9365599B2, “N3S1 chelator-folate derivatives, preparation method thereof and composition for diagnosis or treatment of cancer containing the same as an active ingredient” (KOREA ATOMIC ENERGY RESEARCH INSTITUTE, priority 2012, dated 2016).

Legend:
in vivo = experiment: in vivo; design: species or system mice; details: female, nude, mouse, iv, 370 kBq, total radioactivity
Experimental: (§1) The stock solution of the ^99mTc-labeled PKCK-fol-OH used in the animal studies was prepared for 10^−8 mol/ml with an activity of 370 MBq. Solutions for injection were prepared by the dilution of the stock solution to obtain a desired volumetric activity of 3.7 MBq/ml. The biodistribution experiments for the ^99mTc-labeled PKCK-fol-OH were performed with KB-bearing female nude mice (provided by OrientBio, Republic of Korea). […] After tumor was allowed to grow for 2-3 weeks, the mice were administered 370 kBq (10 uCi)/100 μl intravenously. At 30 min, 1 hr, 3 hr and 24 hr, the animals were sacrificed.
(§2) Table 1 below lists biodistribution results measured at 30 min, 1 hr, 3 hr and 24 hr after injection.

KB tumor xenograft = experiment: in vivo; design: species or system mice; details: mouse, iv
Experimental: as §1, §2

[1] = test system: FR-positive KB tumor cells; experiment: Time-dependent cell uptake (membrane bound and internalized fraction) in FR-positive KB cells; type: cell-based, human; details: 37° C., 10-180 min
Experimental: FR-positive KB tumor cells (human oral epidermoid carcinoma) which overexpress FR were grown in T-flask until 80%-90% confluence at 37° C. and 5% CO2 with folid-acid free (deficient) RPMI 1640 medium (FFRPMI) containing 10% heat-inactivated fetal bovine serum (FBS). […] Cells were rinsed twice with ice-cold PBS and pre-incubated with 850 μl of fresh FFRPMI without FBS at 37° C. for 30 min. […] After incubation, the well plates were washed twice with ice-cold PBS.
After that, the cells were washed with an acid wash buffer (50 mM glysine-HCL buffer, pH 2.4), to remove membrane bound radioligand, and the supernatant was collected to measure the membrane bound fraction of radioactivity. Cells were lysed with 1N NaOH, transferred and measured the internalised fraction of radioactivity with γ-counter. Counted radioactivity in membrane bound fraction and internalized fraction could be ascribed to the sum of cell uptake. The cell uptake data was expressed as % cell uptake (cell uptake/total added activity). Each data represents a result of the […] of triplicate wells. The affinity of PKCK-fol was determined using competitive binding assay. ^99mTc-PKC-fol was used as radioligand in this assay. Cells were harvested with typsin and washed with PBS buffer, and 8×10^5 cells were seeded in 12-well plates. […] After that, the cells were collected to measure the radioactivity with γ-counter. […]

folate-receptor (FR) = target: T1, folate-receptor (FR) (Homo sapiens, UniProt P15328); experiment: Competitive binding assay on FR-positive KB cells with 99mTc-labeled folate radioligand
T1 construct: FR-positive KB tumor cells (human oral epidermoid carcinoma) which overexpress FR; endogenous in cells; host or cells: KB cells (human oral epidermoid carcinoma)
T1 sequence (P15328 25-234): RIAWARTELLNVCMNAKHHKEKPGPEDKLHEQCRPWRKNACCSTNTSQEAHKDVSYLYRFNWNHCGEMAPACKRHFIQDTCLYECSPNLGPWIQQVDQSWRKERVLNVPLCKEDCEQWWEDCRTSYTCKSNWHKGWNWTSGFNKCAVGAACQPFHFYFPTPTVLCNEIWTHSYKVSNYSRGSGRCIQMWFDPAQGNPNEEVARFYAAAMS
Experimental: After that, the cells were washed with an acid wash buffer (50 mM glysine-HCL buffer, pH 2.4), to remove membrane bound radioligand, and the supernatant was collected to measure the membrane bound fraction of radioactivity. Cells were lysed with 1N NaOH, transferred and measured the internalised fraction of radioactivity with γ-counter. Counted radioactivity in membrane bound fraction and internalized fraction could be ascribed to the sum of cell uptake. The cell uptake data was expressed as % cell uptake (cell uptake/total added activity). […] Cells were harvested with typsin and washed with PBS buffer, and 8×10^5 cells were seeded in 12-well plates. […] After that, the cells were collected to measure the radioactivity with γ-counter.

NCCCC[C@H](NC(=O)[C@@H]1CCCN1)C(=O)N[C@@H](CS)C(=O)NCCCC[C@H](NC(=O)CC[C@H](NC(=O)c1ccc(NCc2cnc3nc(N)[nH]c(=O)c3n2)cc1)C(=O)O)C(=O)O (99mTc complex, metal not drawn) [Example 10]
tissue uptake at 0.5 h (in vivo; Blood uptake): 0.64 ± 0.26 %ID/g
tissue uptake at 1 h (in vivo; Blood uptake): 0.36 ± 0.06 %ID/g
tissue uptake at 3 h (in vivo; Blood uptake): 0.18 ± 0.05 %ID/g
tissue uptake at 24 h (in vivo; Blood uptake): 0.06 ± 0.02 %ID/g
tissue uptake at 0.5 h (in vivo; Heart uptake): 2.25 ± 0.47 %ID/g
tissue uptake at 1 h (in vivo; Heart uptake): 1.73 ± 0.27 %ID/g
tissue uptake at 3 h (in vivo; Heart uptake): 1.03 ± 0.32 %ID/g
tissue uptake at 24 h (in vivo; Heart uptake): 0.1 ± 0.06 %ID/g
tissue uptake at 0.5 h (in vivo; Kidney uptake): 76.5 ± 5.04 %ID/g
tissue uptake at 1 h (in vivo; Kidney uptake): 77.2 ± 5.43 %ID/g
tissue uptake at 3 h (in vivo; Kidney uptake): 41.5 ± 12.1 %ID/g
tissue uptake at 24 h (in vivo; Kidney uptake): 7.49 ± 1.9 %ID/g
tissue uptake at 0.5 h (in vivo; Lg Int uptake): 2.43 ± 1.38 %ID/g
tissue uptake at 1 h (in vivo; Lg Int uptake): 3.43 ± 0.73 %ID/g
tissue uptake at 3 h (in vivo; Lg Int uptake): 1.48 ± 0.64 %ID/g
tissue uptake at 24 h (in vivo; Lg Int uptake): 1.38 ± 0.86 %ID/g
tissue uptake at 0.5 h (in vivo; Liver uptake): 7.21 ± 1.58 %ID/g
tissue uptake at 1 h (in vivo; Liver uptake): 5.42 ± 1.85 %ID/g
tissue uptake at 3 h (in vivo; Liver uptake): 2.83 ± 0.6 %ID/g
tissue uptake at 24 h (in vivo; Liver uptake): 1.09 ± 0.07 %ID/g
tissue uptake at 0.5 h (in vivo; Lung uptake): 1.7 ± 0.35 %ID/g
tissue uptake at 1 h (in vivo; Lung uptake): 1.45 ± 0.33 %ID/g
tissue uptake at 3 h (in vivo; Lung uptake): 0.63 ± 0.26 %ID/g
tissue uptake at 24 h (in vivo; Lung uptake): 0.12 ± 0.06 %ID/g
tissue uptake at 0.5 h (in vivo; Sm Int uptake): 0.93 ± 0.54 %ID/g
tissue uptake at 1 h (in vivo; Sm Int uptake): 0.43 ± 0.05 %ID/g
tissue uptake at 3 h (in vivo; Sm Int uptake): 0.27 ± 0.12 %ID/g
tissue uptake at 24 h (in vivo; Sm Int uptake): 0.1 ± 0.05 %ID/g
tissue uptake at 0.5 h (in vivo; Spleen uptake): 0.47 ± 0.13 %ID/g
tissue uptake at 1 h (in vivo; Spleen uptake): 0.36 ± 0.03 %ID/g
tissue uptake at 3 h (in vivo; Spleen uptake): 0.3 ± 0.07 %ID/g
tissue uptake at 24 h (in vivo; Spleen uptake): 0.1 ± 0.03 %ID/g
tissue uptake at 0.5 h (in vivo; Stomach uptake): 1.92 ± 0.26 %ID/g
tissue uptake at 1 h (in vivo; Stomach uptake): 1.2 ± 0.05 %ID/g
tissue uptake at 3 h (in vivo; Stomach uptake): 0.55 ± 0.16 %ID/g
tissue uptake at 24 h (in vivo; Stomach uptake): 0.13 ± 0.04 %ID/g
tissue uptake at 0.5 h (in vivo; Tumor uptake): 2.6 ± 0.53 %ID/g
tissue uptake at 1 h (in vivo; Tumor uptake): 2.96 ± 0.51 %ID/g
tissue uptake at 3 h (in vivo; Tumor uptake): 2.24 ± 0.27 %ID/g
tissue uptake at 24 h (in vivo; Tumor uptake): 0.91 ± 0.28 %ID/g
tissue to tissue ratio at 0.5 h (in vivo; Tumor/blood ratio): 4.38 ± 0.92
tissue to tissue ratio at 1 h (in vivo; Tumor/blood ratio): 8.35 ± 1.12
tissue to tissue ratio at 3 h (in vivo; Tumor/blood ratio): 13.2 ± 2.78
tissue to tissue ratio at 24 h (in vivo; Tumor/blood ratio): 15.2 ± 4.36
tissue to tissue ratio at 0.5 h (in vivo; Tumor/kidney ratio): 0.03 ± 0.01
tissue to tissue ratio at 1 h (in vivo; Tumor/kidney ratio): 0.04 ± 0.01
tissue to tissue ratio at 3 h (in vivo; Tumor/kidney ratio): 0.06 ± 0.01
tissue to tissue ratio at 24 h (in vivo; Tumor/kidney ratio): 0.12 ± 0.02
tissue to tissue ratio at 0.5 h (in vivo; Tumor/liver ratio): 0.38 ± 0.14
tissue to tissue ratio at 1 h (in vivo; Tumor/liver ratio): 0.58 ± 0.17
tissue to tissue ratio at 3 h (in vivo; Tumor/liver ratio): 0.82 ± 0.2
tissue to tissue ratio at 24 h (in vivo; Tumor/liver ratio): 0.83 ± 0.24
uptake in other organs (lung, heart, stomach and intestines) (KB tumor xenograft): kept at a low level
cell affinity and internalization rate [1]: increased time dependently

NCCCCC(NC(=O)C1CCCN1)C(=O)NC(CS)C(=O)NCCCCC(NC(=O)CCC(NC(=O)c1ccc(NCC2=NC3C(=O)NC(N)=NC3N=C2)cc1)C(=O)O)C(=O)O (stereo not shown) [Example 1, PKCK-Fol-OH]
IC50 (folate-receptor (FR)): 0.16 µM
